Consider one substance from US7449443B2, “Method for stabilization of proteins using non-natural amino acids” (California Institute of Technology, priority 2000, dated 2008).

What all share (assay type): physicochemical
Data set [1] is described as follows: CD thermal unfolding of GCN4-p1 coiled-coil peptides. The method, then: Circular Dichroism (CD) Analysis. CD spectra were recorded on an Aviv 62DS spectropolarimeter (Lakewood, N.J.) in PBS buffer, pH 7.4. All peptide concentrations were determined by amino acid analysis of a stock solution (5 mg/ml). Experiments were performed in a rectangular cell with pathlength of 1 cm for low concentration samples and pathlength of 1 mm for high concentration samples. Spectra were scanned from 250 nm to 200 nm with data taken every 1 nm. The temperature of the solution was maintained by a thermostatically controlled cuvette holder (HP model 89101A). Temperature scans were performed from 0° C. to 100° C. in 1° C. steps. Three scans were performed on a single sample and averaged. Each data point was collected after 30 seconds of thermal equilibration at the desired temperature. Urea titration scans were performed manually starting with the 8 M concentrated sample followed by serial dilution to the desired urea concentration. At each concentration, the sample was allowed to equilibrate for 5 min before recording the CD signal.
The analysis of CD thermal melting data was performed according to a previously described procedure using a two-state model (Schneider, J. P.; Lear, J. D.; DeGrado, W. F. J. Am. Chem. Soc. 1997, 119, 5742-5743). Temperature-dependent ellipticity data for each protein at different concentrations were fitted globally using a non-linear least-squares fitting procedure supplied with the Origin 6.0 software. For wild-type A1, the concentrations used for curve fitting were 10 and 100 μM, while 2 and 100 μm were used to fit data for the 92% fluorinated A1. The thermodynamic quantities Tm, ΔHm, ΔCp and Kd were parameters of the fitting procedure and are reported in the 1 M standard state. The free energy of folding at any temperature is given by equation 1. ΔG°=ΔHm(1−T/Tm)−ΔCp((Tm−T)+T1n(T/Tm) (1)
The thermal stabilities of the coiled-coil dimers of Leu-GCN4-p1 and Tfl-GCN4-p1 were examined by CD spectroscopy (FIG. 2B). A significant increase in the thermal stability of Tfl-GCN4-p1 as compared to Leu-GCN4-p1 is reflected in an elevation of the thermal denaturation temperature from 48° C. to 61° C. The 13° C. increase in Tm is remarkable in view of the fact that no increase in the thermal stability of GCN4-p1 has been reported based solely on substitution of the leucine residues at the d-positions. […] As expected for a monomer-dimer equilibrium, the denaturation curves depend on the peptide concentrations, and their midpoints shift to higher temperature as the concentrations of peptides are increased (FIG. 2C). The thermodynamic changes associated with the transition (folded dimer to unfolded monomers) is calculated from the melting curves by fitting the data to a monomer-dimer equilibrium (J. P. Schneider, J. D. Lear and W. F. DeGrado, J. Am. Chem. Soc. 119, 5742, 1997). Global analysis of the thermal unfolding curves at two different concentrations, approximately 85 μM and 3 μM, gave a calculated ΔH° of 60.2 kcal mol^−1, Tm of 385.4 K and ΔCp of 530 cal mol^−1 K^−1 for Tfl-GCN4-p1 (1 M standard state); the corresponding values for Leu-GCN4-p1 are 70.3 kcal mol^−1, 365.6 K and 740 cal mol^−1 K^−1 respectively.

The nature of data set [2]: Sedimentation equilibrium ultracentrifugation (aggregation state). As to conditions: concentration range approximately 10 μM-40 μM. As to the method: Ultracentrifugation. Sedimentation equilibrium analysis of the wild type proteins GCN4-p1 and A1 and the corresponding artificial proteins containing the non-natural amino acids was performed using a Beckman XLI analytical ultracentrifuge, recording interference data and radial absorbance at 236 and 280 nm at the same time. […] The samples were centrifuged at 35000, 40000, 45000 rpm, until equilibrium was reached. Partial specific volumes were calculated by the residue-weighted average method of Cohn and Edsall (Harding, S. E.; Rowe, A. J.; Harton, J. C. Analytic Ultracentrifugation in Biochemistry and Polymer Science; The Royal Society for Chemistry: Cambridge, 1992). Solution densities were estimated using solute concentration-dependent density tables in the CRC Handbook of Chemistry and Physics. The data were fit as single species to provide an estimate of the aggregation states. Curve fitting of analytical ultracentrifuge data was done using Igor Pro (Wavemetrics Inc., Oswego WS) with procedures adapted from Brooks et al. (Brooks, I. S.; Soneson, K. K.; Hensley, P. Biophys. J. 1993, 64, 244) by Dr. James D. Lear.
Secondary structures of wild type polypeptide Leu-GCN4-p1 and the corresponding artificial polypeptide Tfl-GCN4-p1 were analyzed by circular dichroism (CD). […]

Data set [3] is described as follows: Guanidine hydrochloride (GuHCl) titration monitored by CD at 222 nm. As to conditions: at each temperature examined; 30 μM peptide. As to the method:
The difference in the ability to these molecules to resist denaturation is examined at 30° C. (open symbols) and 50° C. (closed symbols). The ellipticity is monitored at 222 nm and with a peptide concentration of 30 μM. Insert: GuHCl titration midpoint concentration, as defined by the concentration of GuHCl that is needed to denature 50% of the peptides, are plotted as a function of temperature, as described in Examples 5.

The mark [4] stands for this setting: global analysis of thermal unfolding curves, 1 M standard state.

As usually defined, the Tm is the temperature at which the thermal transition is half complete. Regarding “Tfl-GCN4-p1: fluorinated GCN4-p1 leucine zipper peptide with trifluoroleucine at the four d-positions”, in data set [1] (CD spectroscopy), the “increase in Tm compared to Leu-GCN4-p1” value is 13 °C. Further, the “thermal denaturation temperature (Tm)” value in data set [1] (CD spectroscopy, coiled-coil dimers) turned out to be 61 °C. Besides, the “ΔH°” value in data set [1] (global analysis of thermal unfolding curves at approximately 85 μM and 3 μM, 1 M standard state) is 60.2 kcal/mol. Further, in data set [1] (setting [4]), the Tm worked out at 112.2 °C and the ΔCp is recorded as 530 cal mol^−1 K^−1. For the same substance, the fraction dimeric entry in data set [2] is “approximately 85%”. Moreover, the “concentration of GuHCl needed to unfold 50% of the peptide, versus wild-type peptide” value in data set [3] was “higher”.
